Article PMC5345815

Target: recombinant gp41 of HIV-1 (ectodomain, amino acids 533-684, from clone pNL4-3), secreted from 293 cells (HIV-1 (infectious molecular clone pNL4-3))
Assay: native gel or EMSA; Novex Native PAGE 4-20% Tris-Glycine gradient gel of purified gp41, Western blot with 2F5; single band below the 170 kDa marker

Q: For “recombinant gp41 of HIV-1 (ectodomain, amino acids 533-684, from clone pNL4-3), secreted from 293 cells (domain or fragment)”, which stoichiometry N is on record?
A: The stoichiometry N was 3.
